The values below come from patent publication CN115043942A.

The target in this assay is 人ROR1 ECD蛋白 (胞外结构域aa30-406) (human) (UniProt Q01973). Description: BLI (Octet ForteBio), antibody on AHC probe, human ROR1 ECD in solution, 1:1 model; mean of two determinations.
UniProt Q01973, sequence (Q01973 30-406): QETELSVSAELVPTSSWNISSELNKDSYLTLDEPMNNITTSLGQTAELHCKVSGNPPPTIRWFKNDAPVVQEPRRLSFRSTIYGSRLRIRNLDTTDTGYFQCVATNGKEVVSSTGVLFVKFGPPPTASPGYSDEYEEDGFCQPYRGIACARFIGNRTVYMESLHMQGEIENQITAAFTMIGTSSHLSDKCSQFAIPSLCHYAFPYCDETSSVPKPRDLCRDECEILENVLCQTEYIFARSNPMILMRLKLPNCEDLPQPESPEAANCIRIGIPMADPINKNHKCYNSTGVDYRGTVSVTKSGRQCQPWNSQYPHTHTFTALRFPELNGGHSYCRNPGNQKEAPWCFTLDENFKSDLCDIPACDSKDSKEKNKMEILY

B1: 抗人ROR1抗体UC961 (带有人IgG1) (antibody, from another filing, V domains shown)
VH: QVQLQESGPGLVKPSQTLSLTCTVSGYAFTAYNIHWVRQAPGQGLEWMGSFDPYDGGSSYNQKFKDRLTISKDTSKNQVVLTMTNMDPVDTATYYCARGWYYFDYWGHGTLVTVSS
VL: DIVMTQTPLSLPVTPGEPASISCRASKSISKYLAWYQQKPGQAPRLLIYSGSTLQSGIPPRFSGSGYGTDFTLTINNIESEDAAYYFCQQHDESPYTFGEGTKVEIK
In turn, B1 came in with a Kd of 15.8 nM, an off-rate (koff) of 0.0137 s⁻¹ and a kon of 981000 M⁻¹ s⁻¹.
